Measurements taken from patent US20190161551A1 (Regeneron, published 2019).

B1: M2aM14179N (antibody, mouse IgG2a, kappa, V domains shown)
VH: EVQLQQSGPELVKPGASVKISCKASGYTLTDYYMNWVKQSHGKSLEWIGDINPNNGGTSYNQKFKGKATLTVDKSSSTAYMELRSLTSEDSAVYYCARGAYYSNYFDYWGQGTTLTVSS
VL: DIVMSQSPSSLAVSAGEKVTMSCKSSQSLLNSRTRKNYLAWYQQKPGQSPKLLIYWASTRESGVPDRFTGSGSGTDFTLTISSVQAEDLAVYYCKQSYILFTFGSGTQLEIKR
notes: Anti-mouse TrkB antibody from hybridoma, mouse IgG2a Fc; also called surrogate anti-mouse TrkB antibody
B2: H4H9816P2 (antibody, human IgG4 S228P, kappa, V domains shown)
VH: EVQLVESGGGLVQPGGSLTLSCAASGFNFRDYEMIWVRQTPGKGLEWISYISNSGYTIYYADSVKGRFTISRDNARNSIYLQVNSLRAEDTAVYYCSRRTTMIRGIRAYYYYGLDVWGQGTTVTVSS
VL: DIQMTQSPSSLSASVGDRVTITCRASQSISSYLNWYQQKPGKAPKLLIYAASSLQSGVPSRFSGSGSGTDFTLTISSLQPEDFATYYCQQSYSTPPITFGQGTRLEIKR
notes: Fully human anti-human TrkB agonist antibody, human IgG4 Fc; also called H4H9816P-L1
B3: H1M8037C (antibody, mouse IgG1, kappa, V domains shown)
VH: QVQLVQSGAEVKKPGASVKVSCKASGYTFTNYDIIWVRQAPGQGLEWMGYINPYNDGTKYNEKFKGRVTMTRDTSTSTVYMELSSLRSEDTAVYYCARLLKYRRFRYYAIDYWGQGTTVTVSS
VL: DIQMTQSPSSLSASVGDRVTITCRTSENVYSNLAWYQQKPGKAPKLLIYAASNLQSGVPSRFSGSGSGTDYTFTISSLQPEDIATYYCQHFWGSPFTFGQGTKLEIKR
notes: captured by anti-mFc in SPR; also called Comparator; comparator anti-TrkB monoclonal antibody
B4: H4H9780P (antibody, human IgG4 S228P, kappa, V domains shown)
VH: QVQLVESGGGVVQPGRSLRLSCAASGFSFSSFGMHWVRQAPGKGLEWVSVISYDGINTYYTDSVKGRFTISRDNSKNTLYLQMNGLRAEDTALYYCVQGSIGTVFEYWGQGTLVTVSS
VL: DIQMTQSPSSLSASVGDRVTITCRASQGISNYLAWYQQKPGKVPKLLIYAASTLQSGVPSRFGGSGSGTDFTLTISSLQPEDVATYYCQKYTSAPFTFGPGTKVDIKR
notes: Fully human anti-human TrkB agonist antibody, human IgG4 Fc; also called H4H9780P-L1
B5: H4H9814P (antibody, human IgG4 S228P, kappa, V domains shown)
VH: EVQLVESGGGLVQPGGSLKLSCTASGFTFSGSVIHWVRQASGKGLEWIGRIRNKANSYATAYGASVTGRFTISRDDSKNTAYLQMNSLKTEDTAVYYCTFPGVVGRGGFDYWGQGTLVTVSS
VL: DIVMTQSPDSLAVSLGEGATINCMSSQSVLFSSNNKNYLAWYQQKPGQPPKLLFYWASTRESGVPDRFGGSGSGTDFSLTINSLQTEDVAVYYCLQYYSIPWTFGQGTKVEIKR
notes: Fully human anti-human TrkB agonist antibody, human IgG4 Fc; also called H4H9814P-L1
B6: M2aM14173N (antibody, mouse IgG2a, kappa, V domains shown)
VH: NVSLVESGGGSVKPGGSLQLSCAASGFTFSSSAMSWIRQTPEMRLEWVATISDRGSYTYYPDSVEGRFTISRDNAKNILYLQMSHLMSEDTAMYYCARGKGEKAYYTAFFAYWGQGSLVTVSA
VL: DIQMTQSPASLSASVGETVTITCRASENIYSYLAWYQQKPGKSPHLLVHNAETLAEGVPSRFSGSGSGPQFSLKINSLQPGDSGTYYCQHHYSSPWTFGGGTKLEIKR
notes: as for B1

Experiments:
mouse TrkB.hFc [1] = biological target: T1, mouse TrkB.hFc (mouse); experiment: BLI Octet, captured mTrkB.hFc, 300 nM mAb (NT-4 run)
T1 construct: also called mTrkB.hFc; mTrkB-hFc
T1 sequence (chain, as listed by the source limits assumed): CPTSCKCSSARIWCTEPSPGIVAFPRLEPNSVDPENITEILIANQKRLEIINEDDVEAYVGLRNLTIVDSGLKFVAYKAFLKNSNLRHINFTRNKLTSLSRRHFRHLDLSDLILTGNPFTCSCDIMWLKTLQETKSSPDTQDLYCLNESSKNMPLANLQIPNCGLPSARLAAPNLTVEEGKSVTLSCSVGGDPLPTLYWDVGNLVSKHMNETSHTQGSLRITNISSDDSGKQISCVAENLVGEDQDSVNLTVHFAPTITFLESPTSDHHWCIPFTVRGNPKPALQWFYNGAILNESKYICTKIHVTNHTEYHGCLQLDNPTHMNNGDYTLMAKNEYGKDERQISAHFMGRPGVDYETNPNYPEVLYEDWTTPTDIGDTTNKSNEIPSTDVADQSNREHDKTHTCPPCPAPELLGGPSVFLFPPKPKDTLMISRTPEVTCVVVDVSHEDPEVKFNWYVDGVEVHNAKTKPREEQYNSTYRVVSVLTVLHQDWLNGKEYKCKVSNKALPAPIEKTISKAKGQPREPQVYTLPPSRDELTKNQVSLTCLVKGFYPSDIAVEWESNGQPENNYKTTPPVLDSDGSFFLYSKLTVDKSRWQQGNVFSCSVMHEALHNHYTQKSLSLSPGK
Protocol: Blocking of BDNF or NT-4 from binding to TrkB by anti-human TrkB or anti-mouse TrkB antibodies was evaluated using a real-time bio-layer interferometry (BLI) based Octet HTX instrument. The entire study was performed in 10 mM HEPES pH 7.4, 300 mM NaCl, 3 mM EDTA, 1 mg/mL BSA, 0.02% NaN3 and 0.05% v/v Surfactant Tween-20 (HBS-EBT running buffer) at 25° C. All the samples were dispensed in a 384 tilted well plate and the plate was placed on the orbital shaker with the shake speed of 1000 rpm. hTrkB.mFc was captured on anti-mFc (AMC) Octet sensors while hTrkB.hFc or mTrkB.hFc were captured on anti-hFc (AHC) Octet sensors by dipping in wells containing 10 μg/mL of TrkB reagents for 2 minutes. hTrkB.mFc or hTrkB.hFc captured Octet biosensors were saturated by dipping in wells containing 300 nM of different TrkB mAbs for 4 minutes followed by dipping Octet biosensors in wells containing 20 nM of BDNF, hNT-4, or mNT-4 for 2 minutes. Binding of BDNF, hNT-4, or mNT-4 to the complex of TrkB and different TrkB mAbs was determined using Scrubber 2.0c analysis software.

mouse TrkB.hFc [2] = biological target: T1, mouse TrkB.hFc; experiment: BLI Octet, captured mTrkB.hFc saturated with BDNF, 300 nM mAb
Protocol: (§1) Blocking of anti-human TrkB or anti-mouse TrkB antibodies from binding to TrkB by BDNF or NT-4 was evaluated using a real-time bio-layer interferometry (BLI) based Octet HTX instrument. The entire study was performed in 10 mM HEPES pH 7.4, 300 mM NaCl, 3 mM EDTA, 1 mg/mL BSA, 0.02% NaN3 and 0.05% v/v Surfactant Tween-20 (HBS-EBT running buffer) at 25° C. All the samples were dispensed in a 384 tilted well plate and the plate was placed on the orbital shaker with the shake speed of 1000 rpm. hTrkB.mFc was captured on anti-mFc (AMC) Octet sensors while hTrkB.hFc or mTrkB.hFc were captured on anti-hFc (AHC) Octet sensors by dipping in wells containing 10 μg/mL of TrkB reagents for 2 minutes. hTrkB.mFc or hTrkB.hFc captured Octet biosensors were saturated by dipping in wells containing 20 nM of BDNF, hNT-4, or mNT-4 for 2 minutes followed by dipping Octet biosensors in wells containing 300 nM of different TrkB mAbs for 4 minutes. Binding of TrkB mAbs to the complex of TrkB and BDNF, hNT-4, or mNT-4 was determined using Scrubber 2.0c analysis software.

[3] = biological target: T2, rat TrkB extracellular domain expressed with a C-terminal myc-myc-hexahistidine tag (rat, UniProt Q63604 32-429); experiment: SPR Biacore T200, mAb captured (anti-mFc), 25C
T2 construct: also called rTrkB.mmH; rTRKB.mmH
T2 sequence (Q63604 other isoform, or with tags, fused parts or gaps): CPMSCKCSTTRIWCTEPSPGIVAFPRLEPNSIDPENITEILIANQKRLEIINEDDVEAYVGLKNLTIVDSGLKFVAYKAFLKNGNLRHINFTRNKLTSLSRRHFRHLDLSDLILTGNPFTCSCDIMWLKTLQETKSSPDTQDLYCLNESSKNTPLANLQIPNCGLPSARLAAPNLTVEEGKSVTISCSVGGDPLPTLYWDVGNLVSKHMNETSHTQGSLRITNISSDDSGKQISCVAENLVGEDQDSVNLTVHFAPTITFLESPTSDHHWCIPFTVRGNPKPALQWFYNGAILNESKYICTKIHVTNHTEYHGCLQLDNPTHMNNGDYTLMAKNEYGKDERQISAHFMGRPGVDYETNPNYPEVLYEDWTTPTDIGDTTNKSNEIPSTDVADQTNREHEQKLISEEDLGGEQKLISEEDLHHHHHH
Protocol: (§2) Equilibrium dissociation constants (KD values) for TrkB binding to purified anti-TrkB monoclonal antibodies were determined using a real-time surface plasmon resonance biosensor using a Biacore T200 instrument. All binding studies were performed in 10 mM Hepes pH 7.4, 150 mM NaCl, 3 mM EDTA, and 0.05% v/v Surfactant Tween-20 (HBS-ET running buffer) at 25° C. The Biacore sensor surface was first derivatized by amine coupling with rabbit anti-mouse Fc polyclonal antibody (GE Healthcare #BR-1008-38) to capture anti-TrkB monoclonal antibodies. Binding studies were performed on the following TrkB reagents; human TrkB extracellular domain expressed with a C-terminal myc-myc-hexahistidine tag (hTrkB.mmH; SEQ ID NO: 76; NP_001018074.1), mouse TrkB extracellular domain expressed with a C-terminal myc-myc-hexahistidine tag (mTRKB.mmH; SEQ ID NO: 79; NP_001020245), and rat TrkB extracellular domain expressed with a C-terminal myc-myc-hexahistidine tag (rTRKB.mmH; SEQ ID NO: 84; XP_002721319.1). […] Kinetic association (kₐ) and dissociation (kd) rate constants were determined by fitting the real-time binding sensorgrams to a 1:1 binding model with mass transport limitation using Scrubber 2.0c curve-fitting software. Binding dissociation equilibrium constants (KD) and dissociative half-lives (t½) were calculated from the kinetic rate constants as: […]

[4] = biological target: T3, mouse TrkB extracellular domain expressed with a C-terminal myc-myc-hexahistidine tag (mouse, UniProt P15209 32-429); experiment: SPR Biacore T200, mAb captured (anti-mFc), 25C
T3 construct: also called mTrkB.mmH; mTRKB.mmH
T3 sequence (P15209 other isoform, or with tags, fused parts or gaps): as the sequence (Q63604 other isoform, or with tags, fused parts or gaps) above, with M3T, T9S, T10A, I32V, K63R, G84S, T153M, I185L, T394S counted along it
Protocol: as §2

[5] = biological target: T4, human TrkB extracellular domain expressed with a C-terminal myc-myc-hexahistidine tag (human, UniProt Q16620 32-430); experiment: SPR Biacore T200, mAb captured (anti-mFc), 25C
T4 construct: also called hTrkB.mmH; hTRKB.mmH
T4 sequence (Q16620 other isoform, or with tags, fused parts or gaps): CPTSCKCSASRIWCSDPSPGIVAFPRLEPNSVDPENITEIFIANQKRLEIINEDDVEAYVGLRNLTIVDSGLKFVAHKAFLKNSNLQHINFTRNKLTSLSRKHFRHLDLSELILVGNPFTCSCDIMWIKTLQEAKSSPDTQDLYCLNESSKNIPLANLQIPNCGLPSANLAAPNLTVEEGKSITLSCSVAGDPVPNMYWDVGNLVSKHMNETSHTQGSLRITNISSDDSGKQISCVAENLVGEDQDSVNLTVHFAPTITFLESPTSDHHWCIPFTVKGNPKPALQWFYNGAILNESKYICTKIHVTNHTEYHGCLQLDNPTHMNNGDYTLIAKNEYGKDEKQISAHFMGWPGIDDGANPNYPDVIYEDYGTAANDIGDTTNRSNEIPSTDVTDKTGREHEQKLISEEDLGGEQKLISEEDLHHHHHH
Protocol: as §2

mouse TrkB.hFc [6] = biological target: T1, mouse TrkB.hFc; experiment: BLI Octet, captured mTrkB.hFc saturated with mNT-4, 300 nM mAb
Protocol: as §1

[7] = biological target: T5, human TrkB extracellular domain expressed with a C-terminal mouse IgG2a Fc tag (human); experiment: BLI Octet, captured hTrkB.mFc saturated with BDNF, 300 nM mAb
T5 construct: also called hTrkB-mFc; hTrkB.mFc
T5 sequence (chain, as listed by the source limits assumed): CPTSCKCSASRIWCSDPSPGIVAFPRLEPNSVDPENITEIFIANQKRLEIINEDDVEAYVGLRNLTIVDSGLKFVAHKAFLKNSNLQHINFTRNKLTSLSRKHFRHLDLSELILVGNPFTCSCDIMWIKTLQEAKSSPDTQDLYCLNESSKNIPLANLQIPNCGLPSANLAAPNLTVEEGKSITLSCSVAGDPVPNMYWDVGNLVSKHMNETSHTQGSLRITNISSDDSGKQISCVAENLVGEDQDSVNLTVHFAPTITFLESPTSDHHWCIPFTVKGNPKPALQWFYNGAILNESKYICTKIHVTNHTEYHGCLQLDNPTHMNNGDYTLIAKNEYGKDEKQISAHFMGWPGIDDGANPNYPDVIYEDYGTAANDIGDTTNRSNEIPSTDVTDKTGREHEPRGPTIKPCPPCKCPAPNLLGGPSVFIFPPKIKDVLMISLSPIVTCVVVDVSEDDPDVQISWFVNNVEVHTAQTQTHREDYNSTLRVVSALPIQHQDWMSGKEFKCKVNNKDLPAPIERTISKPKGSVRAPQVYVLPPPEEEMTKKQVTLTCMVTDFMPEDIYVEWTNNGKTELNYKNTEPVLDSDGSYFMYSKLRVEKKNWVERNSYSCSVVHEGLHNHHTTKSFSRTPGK
Protocol: as §1

[8] = biological target: T5, human TrkB extracellular domain …; experiment: BLI Octet, captured hTrkB.mFc, 300 nM mAb, no ligand
Protocol: as §1

| Binder | mAb Binding (nm) (mouse TrkB.hFc [1]) | antibody Binding (nm) (mouse TrkB.hFc [2]) | 90 nM rTrkB.mmH Bound (RU) [3] [RU] | Kd [3] [nM] | koff [3] [s⁻¹] | kon [3] [M⁻¹ s⁻¹] | t½ [3] [min] | 90 nM TrkB.mmH Bound (RU) [4] [RU] | Kd [4] [nM] | koff [4] [s⁻¹] | kon [4] [M⁻¹ s⁻¹] | t½ [4] [min] | 90nM hTrkB.mmH Bound (RU) [5] [RU] | antibody Binding (nm) (mouse TrkB.hFc [6]) | antibody Binding (nm) [7] [nm] | antibody Binding (nm) [8] [nm] | binding result [5] |
| --- | --- | --- | --- | --- | --- | --- | --- | --- | --- | --- | --- | --- | --- | --- | --- | --- | --- |
| B1 | 0.41 | 0.44 | 33 | 26.9 | 0.00398 | 148000 | 2.9 | 32 | 32.4 | 0.00372 | 115000 | 3.1 | -2 | 0.43 |  |  |  |
| B2 |  |  |  |  |  |  |  |  |  |  |  |  |  |  | 0.26 | 0.19 |  |
| B3 | 0.4 | 0.06 |  |  |  |  |  |  |  |  |  |  |  | 0.11 |  |  |  |
| B4 |  |  |  |  |  |  |  |  |  |  |  |  |  |  | 0.2 | 0.18 |  |
| B5 |  |  |  |  |  |  |  |  |  |  |  |  |  |  | 0.22 | 0.18 |  |
| B6 | 0.413 | 0.38 | 33 | 8 | 0.000632 | 79000 | 18 | 33 | 8.49 | 0.00063 | 74100 | 18 | 0 | 0.4 |  |  | no binding (tested: 90 nM) |
